Square brackets hold non-standard residues; d marks the D form. SeMet = C[Se]CC[C@H](N)C(=O)O
How the values were obtained:
[1] = biological target: the molecule itself; assay: CD thermal unfolding against protein concentration; midpoint of thermal unfolding at pH 6.0 with 0.25 µM to 5 µM protein
[2] = biological target: T1, His-tagged full-length C-terminal cytoplasmic domain of BAP29 (residues 125-237) (Homo sapiens (Human), UniProt Q9UHQ4); assay: IMAC pull-down
T1 chain: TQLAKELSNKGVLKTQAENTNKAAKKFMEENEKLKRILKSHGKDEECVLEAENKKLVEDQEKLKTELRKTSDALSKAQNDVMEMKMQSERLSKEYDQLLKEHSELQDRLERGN

[3] = biological target: the molecule itself; assay: crystal structure; twinned P3_(2)21 form, selenomethionine labeled protein, crystal grown at 19 °C in 100 mM Na citrate pH 4.2, 33% PEG 400, 200 mM LiSO4
[4] = biological target: T2, BAP31 full-length C-terminal cytoplasmic region (residues 124-242), untagged (Homo sapiens (Human), UniProt P51572); assay: analytical gel filtration
T2 chain: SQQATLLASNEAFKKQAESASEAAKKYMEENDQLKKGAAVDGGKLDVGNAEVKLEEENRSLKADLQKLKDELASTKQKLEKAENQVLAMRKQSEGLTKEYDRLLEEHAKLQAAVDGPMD

[5] = biological target: T3, His-tagged full-length C-terminal cytoplasmic domain of BAP31 (residues 124-242) (Homo sapiens (Human), UniProt P51572); assay: IMAC pull-down
T3 chain: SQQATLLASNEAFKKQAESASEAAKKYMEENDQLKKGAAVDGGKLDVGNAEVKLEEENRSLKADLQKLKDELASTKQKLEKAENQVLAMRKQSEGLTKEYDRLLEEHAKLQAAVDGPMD

P51572 = assay: native MS; native ESI MS, 150 mM NH4 acetate pH 7, 1.24 mg/mL further diluted in 15% acetonitrile and 5% 2-propanol, LTQ-Orbitrap Velos
[6] = biological target: the molecule itself; assay: SEC; calibrated gel filtration, Superdex 200, 10-400 µM protein, 20 mM Na-P pH 7.0, 150 mM NaCl, 0.1 mM TCEP; Stoke's radius compared with radii of gyration of dimer and tetramer

B1: BAP31 full-length C-terminal cytoplasmic region (residues 124-242), untagged (domain or fragment, human, UniProt P51572 124-242, looked up)
chain: SQQATLLASNEAFKKQAESASEAAKKYMEENDQLKKGAAVDGGKLDVGNAEVKLEEENRSLKADLQKLKDELASTKQKLEKAENQVLAMRKQSEGLTKEYDRLLEEHAKLQAAVDGPMD
notes: BAP31, human, UniProt P51572, C-terminal cytoplasmic region, residues 124-242; also called BAP31 Cyt; BAP31 full-length cytoplasmic; source: E. coli BL21(DE3) Rosetta 2, purified (IMAC, TEV cleavage, reverse IMAC, gel filtration); not shown: His6, N-terminal, cleaved
B1: binds [1]; no binding [2].

B2: Selenomethionine labeled BAP31 vDED (residues 168-233), untagged (domain or fragment, human, UniProt P51572 168-233, looked up)
chain: LDVGNAEVKLEEENRSLKADLQKLKDELASTKQKLEKAENQVLA[SeMet]RKQSEGLTKEYDRLLEEHAKL
notes: BAP31, human, UniProt P51572, vDED domain, residues 168-233; Same construct as m1, with selenomethionine; used for the P3_(2)21 crystal form at pH 4.2 (residues 169-220 modeled); also called BAP31 vDED acidic pH (P3_(2)21 form); source: E. coli BL21(DE3) Rosetta 2 grown in minimal medium, purified as the native protein with 2 mM TCEP; not shown: His6, N-terminal, cleaved
B2: binds [3].

B3: BAP29 full-length C-terminal cytoplasmic region (residues 125-237), untagged (protein)
chain: TQLAKELSNKGVLKTQAENTNKAAKKFMEENEKLKRILKSHGKDEECVLEAENKKLVEDQEKLKTELRKTSDALSKAQNDVMEMKMQSERLSKEYDQLLKEHSELQDRLERGN
B3: no binding [4]; no binding [5].

B4: BAP31 vDED (variant of death effector domain of human BAP31, residues 168-233), untagged (domain or fragment, UniProt P51572 168-233, looked up)
chain: LDVGNAEVKLEEENRSLKADLQKLKDELASTKQKLEKAENQVLAMRKQSEGLTKEYDRLLEEHAKL
notes: BAP31, human, UniProt P51572, vDED domain, residues 168-233; Vector pNIC28-Bsa4; also called vDED domain of BAP31; source: E. coli BL21(DE3) Rosetta 2, purified (IMAC, TEV cleavage, reverse IMAC, gel filtration); not shown: His6, N-terminal, cleaved
In the case of B4, the “dimer peak height relative to the monomer peak” value (P51572) is reported as ≥35% of the monomer peak height and the “stoichiometry N” value [6] is reported as 2.

Source: publication PMC3742741 (PLoS ONE, 2013)
